# Assay results from US20240218057A1 (ROCKEFELLER UNIVERSITY, published 2024).
# B1: C871 (antibody, V domains shown)
# VH: EVQLVESGGGLIQTGGSLKLSCAASGFIVTNNYMSWVRQAPGKGLEWVSVIYSGGTTYYADSVKGRFTISRDISKNTLYLQMNSLKAEDTAVYYCAREGDVEGISDSWSGYSRDRYYFDHWGQGTLVTVSS
# VL: QSALTQPASVSGSPGQSITISCTGTSSDVGGYNYVSWYQQHPGKAPKLMIYDVSNRPPTISNRFSGSKSGNTASLIISGLQPEDEADYYCSSFTSNNTRVFGTGTKVTVL
# B2: C888 (antibody, V domains shown)
# VH: EVQLVESGGGLVQPGGSLRLSCAASGFTVSSNYMSWVRQAPGKGLEWVSVIYSGGSAYYADSVKGRFTISRDNSKNTLYLQMNSLRAEDTAVYYCARDLRDQDGYSYGAFDYWGQGTLVTVSS
# VL: QSALTQPASVSGSPGQSITISCTGTSSDVGGYNYVSWYQQHPGKAPKLMIYDVSNRPSGVSNRFSGSKSGNTASLTISGLQAEDEADYYCSSYTSSSSWVFGGGTKLTVL
# B3: C840 (antibody, V domains shown)
# VH: QVQLVESGGGVVQPGRSLRLSCEASGFTFTAYAMHWLRQAPGKGLEWVAVILNDGSNKLYADSVKGRFTVSRDNSKNMLYLQVNSLRVDDTAVYYCARDGSVDTLMVTWFDYWGQGTLVTVSS
# VL: DIQMTQSPSSLSASVGDRVTITCRASQSVNNYLNWYQQKPGQAPKLLIYAASSLQSGVPLRFSGSGSGTDFALTITSLHTEDFATYYCQQSYNTPPWTFGPGTKVEIK
# B4: C889 (antibody, V domains shown)
# VH: EVQLVESGGGLVQPGGSLRLSCAVSGFTVSSNYMTWVRQAPGKGLEWVSLIYSGTSAFYADSVKGRFTISRDNSKNTLYLQMSSLRVNDTAIYYCARDLRKDDGYSYGAFDYWGQGTLVTVSS
# VL: QSALTQPASVSGSPGQSITISCSGTSSDVGAHNYVSWYQQYPGKAPKLMIFDVTDRPSGVSNRFSGSKSGNTASLTISGLQAEDEADYYCTSYTTNRSWVFGGGTKVTVL
# B5: C1003 (antibody, V domains shown)
# VH: QVQLVESGGGVVQPGRSLRLSCAASGFAFSSYGMNWVRQAPGKGLEWVTTVSSDGNVNYYIDSVKGRFTISRDNSKNTLYLQMNSLRGDDTAVYYCAKGPRFGWSYRGGSGFDIWGQGTMVTVSS
# VL: DIQMTQSPSSLSASVGDRVTITCQASQDISNYLNWYQQKPGKAPKLLIYDASNLETGVPSRFSGSGSGTDFTFTITSLQPEDIATYYCQQYDNLPITFGQGTRLEIK
# B6: C853 (antibody, V domains shown)
# VH: QVQLQESGPGLVKASQTLSLTCTVSGGSFRSGGYYYNWIRQHPGKGLEWIGYIFYTGVTYYNPSLKSRVSISVDTSKNQLSLNLTSVTAADTAVYYCARGSYSDYNGGWDYWGRGTLVTVS
# VL: QSALTQPPSASGSPGQSVTISCIGTSSDVGGYNYVSWYQHHPGKAPKLIIYEVSKRPSGVPDRFSGSKSGNTASLTVSGLQADDEADYYCSSYAGSNNWVFGGGTKLTV
# B7: C916 (antibody, V domains shown)
# VH: EVQLVESGGGLVQPGGSLRLSCAASGFTFSNYDMHWVRQATGRGLEWVSTIGTAGDTYYPGSVKGRFTISRENAKNSLYLQMNSLRAGDTALYYCARVRYDSSGYFWSLDYWGQGTLVTVSS
# VL: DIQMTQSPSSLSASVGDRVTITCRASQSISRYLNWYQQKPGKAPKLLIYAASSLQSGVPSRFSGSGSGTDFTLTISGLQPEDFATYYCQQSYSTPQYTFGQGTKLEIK
# B8: C917 (antibody, V domains shown)
# VH: EVQLVESGGGLVQPGGSLRLSCAASGFTFSNYDMHWVRQATGKGLDWVSTIGTAGDTYYPGSVKGRFTISRENAKNSLYLQMNSLRAGDTAVYYCARVRFDTSGYFWSLDYWGQGTLVTVSS
# VL: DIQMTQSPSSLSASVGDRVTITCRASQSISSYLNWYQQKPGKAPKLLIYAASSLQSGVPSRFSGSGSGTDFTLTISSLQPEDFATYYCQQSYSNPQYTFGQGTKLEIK
# B9: C841 (antibody, V domains shown)
# VH: EVQLVESGGGLVQPGGSLRLSCAASGFTFSIFSMNWVRQAPGKGLEWISYISSSSGSRHYADSVKGRFTISRDNAKNSLYLQMNNLRDEDTAMYYCAREAHDGALTGYGDYLNWFDPWGQGVLVTVSS
# VL: SYELTQPPSVSVAPGKTARIPCGGDSVGSKSVHWYQQKSGQAPVLVIHSDSDRPSGIPERFSGSNSGNTATLTITGVAAGDEADYYCHVWDTIGDRFYWVFGGGTKLTVL
# B10: C1027 (antibody, V domains shown)
# VH: EVQLVESGGGLVQPGGSLRLSCAASGFIVTTNYMSWVRQAPGKGLEWVSLIYPGGSTFYADSVEGRFTISRDNSKNTLYLQVNSLRVEDTAVYYCARDTFGRGDDHWGQGTLVTVSS
# VL: DIQMTQSPSSLSASVGDRVTITCQASQDINIYLNWYQQRPGKAPKLLIYDASNLQTGVPSRFSGSGSGTDFTITISSLQPEDIATYYCQQYDNLPRSFGQGTKLEI
# B11: C936 (antibody, V domains shown)
# VH: EVQLVESGGGLIQPGGSLRLSCAASGFTVSSNYMSWVRQAPGKGLEWVSVIYSGGSTFYADSVKGRFTISRDNSKNTLYLQMNSLRAEDTAVYYCARDLGTGLFDYWGQGTLVTVSS
# VL: DIQLTQSPSFLSASVGDRVTITCRASQGISSYLAWYQQKPGKAPKLLIYAASTLQSGVPSRFSGSGSGTEFTLTISSLQPEDFATYYCQQLDSYPPGTFGPGTKVDIK
# B12: C929 (antibody, V domains shown)
# VH: EVQLVESGGGLIQPGGSLRLSCAASGFTVSSNYMTWVRQAPGKGLEWVSVIYSGGTTYYADSVKGRFTISRDNSKNTLYLQMNSLRAEDTAVYYCARDLVVWGMDVWGQGTTVTVSS
# VL: DIQLTQSPSFLSASVGDRVTITCRASQGISSYLAWYQQKPGKAPKLLIYAASTLQSGVPSRFSGSGSGTEFTLTISSLQPEDFATYYCQLLNSYPYTFGQGTKLEIK
# B13: C937 (antibody, V domains shown)
# VH: EVQLVESGGGLIQPGGSLRLSCAASELTVSSNYMSWVRQAPGKGLEWVSVIYPGGSTFYADSVKGRFTISRDNSKNTLYLQMNSLRAEDTAVYYCARDLGTGLFDYWGQGTLVTVSS
# VL: DIQLTQSPSFLSASVGDRVTITCRASQGISSYLAWYQQKPGKAPKLLIYAASTLQSGVPSRFSGSGSGTEFTLTISSLQPEDFATYFCQLLNSNPPGTFGPGTKVDIK
# B14: C930 (antibody, V domains shown)
# VH: EVQLVESGGGLFQPGGSLRLACAASGITVSSNYMSWVRQPPGKGLEWVSVIYAGGSTFYADSVKGRLTISRDNSKNTLYLQINSLRAEDTAVYYCARDLVVWGMDVWGQGTTVTVSS
# VL: DIQLTQSPSFLSASVGDRVTITCRASQGISSYLAWYQQKPGKAPKLLIYAASTLQSGVPSRFSGSGSGTEFTLTISSLQPEDFATYYCQQLNTYPYTFGQGTKLEIK
# B15: C952 (antibody, V domains shown)
# VH: EVQLVQSGAEVKKPGESLTISCKDSGNSFTIYWIGWVRQMPGKGLEWMGMIYPGDSGTRYSPSFEGQVTISADESINTAYLQWRSLKASDTAMYYCVRGIAVDWYFDLWGRGTLVTVSS
# VL: QSVLTQPPSVSGAPGQRVTISCTGSSSNIGAGFDVHWYQQLPGTAPKLLIYGNNNRPSGVPDRFSGSKSATSASLAITGLQAEDEADYYCQSSDSSLSGLYVFGTGTNVIV
# B16: C1010 (antibody, V domains shown)
# VH: QVQLVESGGGVVQPGRSLRLSCAASGFTFSSYAMHWVRQAPGKGLEWVAVISYDGSNKYYADSVKGRFTISRDNSKNTLYLQMNSLRAEDTAVYYCAKKGQPYCGGDCYFYYFDYWGQGTLVTVSS
# VL: DIQMTQSPSSLSASLGDRVTITCQASQDISNYLNWYQQKPGKAPKLLIYDASNLETGVPSRFSGSGSGTDFTFTISSLQPEDIATYYCQQYDNLPPITFGQGTRLEIK
# B17: C1011 (antibody, V domains shown)
# VH: QVQLVESGGGVVQPGRSLRLSCAVSGFTFSHYAMHWVRQAPGKGLEWVAVISYDGADKYYADSVRGRFTIARDNSKNTLFLQMSSLRPEDTAVYYCAKKGQPYCGGDCHFYYLDYWGQGTLVTVSS
# VL: DIQMTQSPSSLSASVGDRVTITCQASQDISNHLNWYQQKPGKAPKLLIYDASNLETGVPSRFSGSGSGTDFTFTISSLQAEDIATYYCQQYDNLPPITFGQGTRLEIK
# B18: C1002 (antibody, V domains shown)
# VH: EVQLVESGGGLVQPGGSLRLSCAASEFIVSSNYMTWVRQAPGKGLEWVSIMYPGGSTFYADSVKGRFTISRDNSKNTLYLQINRLRAEDTAVYYCARDIAGRLDYWGQGTLVTVSS
# VL: DIQMTQSPSSLSASVGDRVTITCQASQDINNYLNWYQQKPGKAPKLLIYDASNLETGVPSRFSGSGSGTDFSFTISSLQPEDIATYYCQQYDNLSRLTFGGGTKVEIK
# B19: C934 (antibody, V domains shown)
# VH: QVQLVQSGAEVKKPGASVKVSCKASGYTFTDYYIHWVRQAPGQGLEWMGWINPNSGGTNYAQKFQGRVTMTRDTSISTAYMDLSRLRSDDTAVYYCARDVIITMGRGVVFRMDVWGQGTTVTVSS
# VL: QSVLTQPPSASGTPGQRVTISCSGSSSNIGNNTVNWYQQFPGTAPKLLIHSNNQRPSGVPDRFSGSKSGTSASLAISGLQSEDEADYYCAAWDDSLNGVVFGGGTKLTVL
# B20: C881 (antibody, V domains shown)
# VH: EVQLVESGGGLIQPGGSLRLSCAVSGVAVSTNYMSWVRQAPGQGLEWVSTIYSGDTTYYSDSVKGRFTISRDNSKNTFYLQMNSLRVPDTAVYYCARLGGVFNGFNGSFDYWGQGTLVTVS
# VL: QSALTQPASVSGSPGQSITISCIGTSSDFENYNLVSWYQQHPGKAPKVMIYEDTKRPSGVSNRFSGSKSANTASLTISGLQAEDEAEYYCCSYAGASTWVFGGGTRVTVV
# B21: C537 (antibody, V domains shown)
# VH: QLQLQESGPGLVKPSETLSLTCTVSGGAISSRNYHWGWIRQPPGKGLEWIGSIYYSGSTYYSPSLKSRVTISVDTSKNQFSLRLSSVTAADTAVYYCARLETSGWYTEDVFDIWGQGTMVTVSS
# VL: DIQMTQSPSSLSASVGDRVTITCRASQSISSYLNWYQQKPGKAPKLLIYAASSLQSGVPSRFSGSGSGTDFTLTISSLLPEDFATYYCQRSYSAMYTFGQGTKLEIK
# B22: C046 (antibody, V domains shown)
# VH: EVQLVESGGGLAQPGRSLRLSCAASGFTFDDYAMHWVRQAPGKGLEWVSGINWNSGSLGYADSVKGRFTISRGIAKNSLYLQMNSLRPEDTAFYYCAKAGVRGIAAAGPDLNFDYWGQGTLVTVSS
# VL: EIVLTQSPATLSLSPGERATLSCRASQSVSSYLAWYQQKPGQAPRLLIYDASNRATGIPARFIGSGSGTDFTLTISSLEPEDFAVYYCQQRITFGQGTRLEIK
# Molecular target: T1, SARS-CoV-2 receptor-binding domain (WT RBD; S protein residues 319-539) (SARS-CoV-2, UniProt P0DTC2 319-539)
# T1 construct: also called SARS-COV-2 RBD
# Assay: BLI (Octet Red), IgG on protein A biosensor, WT RBD in solution, 1:1 fit
row,Binder,Kd [nM]
1,B1,3.7
2,B2,1390
3,B3,5.56
4,B4,4.17
5,B5,90.9
6,B6,5.88
7,B7,3.45
8,B8,0.101
9,B9,1.64
10,B10,0.0114
11,B11,667
12,B12,0.127
13,B13,3.03
14,B14,0.323
15,B15,0.172
16,B16,62.5
17,B17,0.0833
18,B18,0.00196
19,B19,100
20,B20,5.26

# Molecular target: SARS-COV-2 RBD (SARS-COV-2, UniProt P0DTC2 319-539)
# Assay: ELISA, RBD coated
row,Binder,EC50 [µg/mL]
1,B21,0.0418
2,B22,0.00402
